In US20160347840A1 (Janssen / Centocor, published 2016):

T1: isolated cynomolgus PSMA (cynoPSMA) extracellular domain, Fc removed (cynomolgus, UniProt Q04609 44-750 (human entry), N-linked glycans seen at Asn-76, -121, -140, -195, -459, -476, -613 and -638 (numbering of SEQ ID NO: 141))
T1 construct: Expressed in GnTI- cells as a C-terminal fusion to huIgG1 Fc; the ECD starts at residue 44 of that entry; the structure includes residues 57-750; also called cynomolgous PSMA dimer
T1 chain: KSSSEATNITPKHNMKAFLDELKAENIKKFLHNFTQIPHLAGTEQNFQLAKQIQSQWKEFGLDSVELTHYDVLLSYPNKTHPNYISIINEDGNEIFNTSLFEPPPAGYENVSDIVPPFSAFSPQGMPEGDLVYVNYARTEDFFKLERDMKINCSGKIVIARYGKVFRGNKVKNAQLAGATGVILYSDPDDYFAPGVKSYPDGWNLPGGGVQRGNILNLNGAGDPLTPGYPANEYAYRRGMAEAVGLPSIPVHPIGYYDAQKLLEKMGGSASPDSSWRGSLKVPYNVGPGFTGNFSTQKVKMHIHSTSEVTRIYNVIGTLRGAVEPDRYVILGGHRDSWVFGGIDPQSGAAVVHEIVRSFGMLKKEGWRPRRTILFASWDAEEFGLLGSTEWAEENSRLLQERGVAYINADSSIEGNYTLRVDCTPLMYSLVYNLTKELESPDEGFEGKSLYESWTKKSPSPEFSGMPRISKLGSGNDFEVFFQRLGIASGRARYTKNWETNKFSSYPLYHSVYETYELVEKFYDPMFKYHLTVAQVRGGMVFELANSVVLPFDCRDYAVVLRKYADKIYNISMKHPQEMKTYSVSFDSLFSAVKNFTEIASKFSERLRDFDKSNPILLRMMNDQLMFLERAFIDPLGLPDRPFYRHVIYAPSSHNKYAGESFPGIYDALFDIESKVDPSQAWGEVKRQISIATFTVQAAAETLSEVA

T2: chimpanzee PSMA extracellular domain (PSMW8), 6His and Avi tag (chimpanzee, UniProt Q04609 44-750 (human entry), biotinylated in bead-based selections and the ELISA screen)
T2 construct: Cloned along with a 6His and Avi tag; Buffer with ZnCl2 to stabilise PSMA dimerisation; also called pan 229
T2 chain: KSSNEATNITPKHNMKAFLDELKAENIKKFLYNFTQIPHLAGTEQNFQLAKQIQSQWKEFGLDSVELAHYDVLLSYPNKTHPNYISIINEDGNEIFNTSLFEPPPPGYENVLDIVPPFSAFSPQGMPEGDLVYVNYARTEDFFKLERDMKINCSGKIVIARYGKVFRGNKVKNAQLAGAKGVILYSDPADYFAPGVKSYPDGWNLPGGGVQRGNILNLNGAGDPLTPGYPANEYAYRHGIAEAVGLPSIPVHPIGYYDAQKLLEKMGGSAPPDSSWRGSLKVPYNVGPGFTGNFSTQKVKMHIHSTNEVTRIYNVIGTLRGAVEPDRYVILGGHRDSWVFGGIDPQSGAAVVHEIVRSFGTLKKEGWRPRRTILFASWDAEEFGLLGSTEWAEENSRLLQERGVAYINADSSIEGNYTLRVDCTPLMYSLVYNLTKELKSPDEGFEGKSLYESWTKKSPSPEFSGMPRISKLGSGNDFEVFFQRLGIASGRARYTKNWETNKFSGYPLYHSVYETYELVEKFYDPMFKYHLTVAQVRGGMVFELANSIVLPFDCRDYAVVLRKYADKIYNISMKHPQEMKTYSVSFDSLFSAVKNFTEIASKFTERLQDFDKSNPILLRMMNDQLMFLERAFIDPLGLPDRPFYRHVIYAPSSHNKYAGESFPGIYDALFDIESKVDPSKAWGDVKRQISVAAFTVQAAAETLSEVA


Tests used:
[1] = molecular target: T3, cell-surface CD3E on primary human T cells (human, UniProt P07766 23-207); experiment: flow cytometry on primary human T cells, positive control
T3 construct: whole, on cells; On the cells CD3E stands in the CD3/T cell receptor complex; also called human CD3
T3 sequence (P07766 23-207): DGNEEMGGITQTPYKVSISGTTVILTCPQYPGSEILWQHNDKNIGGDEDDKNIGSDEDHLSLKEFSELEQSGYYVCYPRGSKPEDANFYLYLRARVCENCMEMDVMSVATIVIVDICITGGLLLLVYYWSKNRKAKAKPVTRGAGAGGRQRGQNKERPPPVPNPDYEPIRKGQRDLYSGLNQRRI
Method: The resulting panel of anti-CD3 antibodies was tested for binding against cell-surface CD3E on primary human T cells. To do this, binding of antibodies from expression supernatants was visualized using a polyclonal anti-human secondary antibody and analyzed by flow cytometry. Briefly, binding of anti-CD3 antibodies to cell-surface CD3E was assessed by flow cytometry using primary Human T lymphocytes purified by negative selection (Biological Specialty, Colmar, USA). Expression supernatants or purified antibodies were normalized to 10 μg/ml in media or FACS buffer (BD BioSciences), respectively. 2×10⁵ cells were aliquoted into wells of a 96 well round-bottomed plate (CoStar) for labeling. Antibodies in expression supernatant were added to cells and incubated for 45 min at 4° C. Following centrifugation at 1300 rpm for 3 min and removal of supernatant, 50 μL of anti-human IgG (H+L) Alexa Fluor 647 secondary antibody (Life technologies Inc.) was incubated with the cells at a final concentration of 10 μg/mL for 30 min at 4° C. away from direct light. Following washing and resuspension in 30 μL FACs buffer (BD BioSciences). Sample collection was performed on an Intellicyt HTFC system using ForeCyt software. […] Graphs were generated in GraphPad Prism version 5 using mean fluorescence intensity values. […]

[2] = molecular target: T4, cynomolgus CD3E on primary cynomolgus CD4+ T cells (cynomolgus, UniProt Q95LI5 22-198); experiment: stated for the flow cytometry assay on primary cynomolgus CD4+ T cells
T4 construct: whole, on cells; On the cells CD3E stands in the CD3/T cell receptor complex
T4 sequence (Q95LI5 22-198): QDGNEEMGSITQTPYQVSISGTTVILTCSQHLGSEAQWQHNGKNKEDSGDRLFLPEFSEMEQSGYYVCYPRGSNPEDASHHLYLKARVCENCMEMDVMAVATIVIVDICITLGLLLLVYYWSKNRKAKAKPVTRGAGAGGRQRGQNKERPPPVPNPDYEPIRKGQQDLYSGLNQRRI

[3] = molecular target: T1, isolated cynomolgus PSMA (cynoPSMA) …; experiment: X-ray crystal structure of the complex
Method: The H10 FN3 Domain/cynoPSMA complex was prepared by mixing cynoPSMA with H10 FN3 domain at a molar ratio of 1:3 (excess FN3 domain) while dialyzing for 48 h at 4° C. against 20 mM Hepes pH 7.0, 0.5 mM ZnCl₂. The complex was then eluted from a monoS column with a gradient of 48-68 mM NaCl, 20 mM Hepes pH 7.5, 10% glycerol and concentrated to 3.4 mg/mL. Crystals suitable for X-diffraction were obtained from 25% PEG 3 kDa, 0.2 M NH₄Cl, 0.1 M Na Acetate pH 4.5 using the sitting drop vapor-diffusion method at 20° C.
For X-ray data collection, the crystal was soaked for a few seconds in a cryo-protectant solution containing mother liquor supplemented with 20% glycerol, and then frozen in liquid nitrogen. X-ray diffraction data were collected with a Dectris Pilatus 6M Pixel Array detector at the beamline 17-ID of the Advanced Photon Source (APS) at Argonne National Laboratory. Diffraction data were processed with the program HKL2000 (Otwinowski & Minor, 1997).

[4] = molecular target: T2, chimpanzee PSMA extracellular domain …; experiment: hit from CIS-display panning and ELISA screen on PSMA of this species (column Antigen species)
[5] = molecular target: T5, human PSMA on tumor cells (LNCaP, MDA-PCA-2B, VCAP, 22Rv1) (human, UniProt Q04609 1-750); experiment: cell-based or functional assay
T5 sequence (Q04609 whole entry): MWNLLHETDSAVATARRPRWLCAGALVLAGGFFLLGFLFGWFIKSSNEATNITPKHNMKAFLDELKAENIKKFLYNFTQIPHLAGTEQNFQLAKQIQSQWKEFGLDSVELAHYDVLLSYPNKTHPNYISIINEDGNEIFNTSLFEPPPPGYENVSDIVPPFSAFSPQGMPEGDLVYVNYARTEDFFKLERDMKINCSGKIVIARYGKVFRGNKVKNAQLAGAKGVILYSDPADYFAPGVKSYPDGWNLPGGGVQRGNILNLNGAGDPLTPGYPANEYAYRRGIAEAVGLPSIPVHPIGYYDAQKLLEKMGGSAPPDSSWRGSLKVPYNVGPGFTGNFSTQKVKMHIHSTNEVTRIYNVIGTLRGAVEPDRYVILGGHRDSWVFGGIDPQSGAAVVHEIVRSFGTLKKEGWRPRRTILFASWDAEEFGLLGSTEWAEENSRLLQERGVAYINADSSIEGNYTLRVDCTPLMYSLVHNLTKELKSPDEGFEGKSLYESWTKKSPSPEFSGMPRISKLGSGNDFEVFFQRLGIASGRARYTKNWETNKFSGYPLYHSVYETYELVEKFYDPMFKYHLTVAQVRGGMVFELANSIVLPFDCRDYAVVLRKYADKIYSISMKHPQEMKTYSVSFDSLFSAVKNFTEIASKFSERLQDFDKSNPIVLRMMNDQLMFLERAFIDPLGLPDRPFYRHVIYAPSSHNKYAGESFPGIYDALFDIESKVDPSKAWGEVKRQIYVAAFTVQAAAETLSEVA

[6] = molecular target: T5, human PSMA on tumor cells (LNCaP, …); experiment: cell-based or functional assay; remark: listed apart in the source

Row | Binder | binding result [1] | binding result [2] | binding result [3] | binding result [4] | LNCaP cells IC50 (nM), cytotoxicity of FN3 domain-drug conjugate [5] [nM] | MDA-PCA-2B cells IC50 (nM), cytotoxicity of FN3 domain-drug conjugate [5] [nM] | VCAP cells IC50 (nM), cytotoxicity of FN3 domain-drug conjugate [5] [nM] | LNCaP IC50 (nM), cytotoxicity of the FN3 domain-vcMMAF conjugate (CellTiter-Glo) [6] [nM]
1 | G11 (antibody, V domains shown, In-house phage-derived anti-CD3 antibody; non-cyno cross-reactive, agonistic; positive control; also called G11 mAb) VH: EVQLLESGGGLVQPGGSLRLSCAASGFTFSSYGMSWVRQAPGKGLEWVSGINGGGGSKYYADSVKGRFTISRDNSKNTLYLQMNSLRAEDTAVYYCAKTSAQRFDYWGQGTLVTVSS VL: not shown | binds | no binding |  |  |  |  |  | 
2 | P233FR9_H10 (designed binder, also called H10 FN3 domain; P233FR9_10; not shown: C-terminal poly-histidine tag) LPAPKNLVVSRVTEDSARLSWTAPDAAFDSFAIGYWEWDDDGEAIVLTVPGSERSYDLTGLKPGTEYPVYIAGVKGGQWSFPLSAIFTT |  |  | binds | binds | 0.5 | 5.8 | 25.9 | 0.4
